Measured values as given in the DeepSol protein solubility set.

Assay: soluble on expression in E. coli; label from the status in PepcDB or PDB records

Sequence	soluble on expression in E. coli
MGSDKIHHHHHHMVAQIQELDALHWVKTRSSLDPNQSTFLTWTGKIYAFIPGEKRKLLFKMVGVSVSRCLPTDEGNWDFTSRELTYYLNPENDEILRKWENPWTGETVPVLHVANNPVQGHFQGKFPAQVEGETTTFVFDIFPTYPNPLAEETQFAEYSPYPTYQAAELFKLTVPTADLFNAELPAVSQLRLSWDRIGQWLPWMKMGDRPGNLIYSAFGSKVNGLTELPHILQEEINTRVPLYKQAPKTFSDGEDMTSWLYFQKHFQAYLAGDIFPLPADEEV	not soluble
MAHHHHHHMYDDVEVRRREEARQHTAASLIQRRWREHAERRSLEQDAAPLRGTGGNGVLLVASDAFGDVVGRRGGETDEALRPLKSDGFDELAQTVQTPEEKRRACVEEYRALLAKRKALLENNLVYQQLLSRHYAEQRRRNGEDEVAQLTTPDAEAAYWALVRQVAEERQRVAARSTALKKDLELQRQRYEPIMEEAATQERNFQQYIQELAASVRFMRSNRPIPTEAIEKYIELEAVQRSAIHASRVRYLQLKNRLLRLRRVAKGGAALSSSAPTATAAATGQDGEESNAANHHMFLIDFEQLKVENTSLNEKIEERSEEVLKLRNKVTNTIHIATHVREKLDCVRAENAELRQHVASTDEELGGARDQLAKSKRRRDAHLRANTRMKERMPLVGSRDLLMDYEKRKAVIYNYRTRLVQLTDRHKELTDSIKKEESTIVSLQHELSHYPK	not soluble
MTTPRWLTQDEQSLWRLFLAMERKVTRGIDEELQSSQGLTTPEFSVLVSLSERPGHEIRLRDLCESLQWDRSRTSHQITRMQRRGLVTKTKCSDDARGVFVELTPEGEKRLREAAPGHVDVVRKLIFDVMTEEEAAVLRGYFQKVIDVQCGASTGNPLDD	not soluble
MKPTAIFLMGPTASGKTDLAIQLRSQLPVEVISVDSALIYKGMDIGTAKPSKEELALAPHRLIDILDPSESYSAMNFRDDALREMADITAQGKIPLLVGGTMLYYKALIEGLSPLPSADENIRAELEQKAAQQGWAALHTELAKIDPISAARINPSDSQRINRALEVFYITGKSLTELTEEKGEALPYDFVQFAIAPQDRHVLHERIEQRFHKMIELGFQAEVEKLYARGDLNINLPSIRCVGYRQMWEYLQGDYAYEEMIFRGICATRQLAKRQLTWLRGWKTPIQWLDSLQPQQAKETVLRHLDSYQKGLEHHHHHH	soluble
MSLNRRHTIKHNFPIVGHFRYLLEKIGPELRQYIVANNREELPFNRRQRSWIYASSKQENNYQGFGTDQDQNSPGFVFIKPSMFSYAVKEGHPNKKKPDFVPCAKIMGAYNKRRRPYRPYSIINISGMSYGSLSARAVESLNKGALKAGCYQNTGEGSLAPHHKHGADIMFHFGTGYFGVRDEHGNFSMSKLKALVEANPCIRAIDLKLSQGAKPGKGGVLPASKITQEIADIRGLPMGKDVISPAYHSVFSNVPEMMDFIENIAQETGLPVGFKSAVGKMEMWVELADRMLEKGYGPDFITIDGGEGGTGAAPPAFADHVSLPFVYAFSNVYKIFAERGLTDRIVFAASGKLGFPESSLMAFALGADVIHVAREAMMSIGCIQAQVCHNNTCPSGVATQNKWLQSGIDVPLKADRLYNYIKNLRKEVLEITHACGYEHPSQMTMTDIDISMGDNNLTMPLVDAYKYNKIPVNFESMQKLADEGHHHHHH	not soluble
MSSPRSNKPKIVNGPGGYILQDVPHLIDYLPDLPTYPNPLQDNPAYSVVKQYFVHADDSVPEKVVVHKDGPRGVHFRRAGPRQKVYFESDEVHACIVTCGGLCPGLNTVIREVVSSLSYMYGVKRILGIDGGYRGFYAKNTIPLNSKVVNDIHKRGGTIIGTSRGGHDTNKIVDSIQDRGINQVYIIGGDGTQRGASVIFEEIRRRRLKVAVVGIPKTIDNDIPVIDKSFGFDTAVEEAQRAINAAHVEAESNENGIGFVKLMGRYSGYIAMYATLASRDVDCCLIPESPFYLEGEGGLFEFIERRLKDHGHMVIVLAEGAGQDLMCKSMESTPMDASGNKLLKDVGLWLSQSIKDHFKKNKMVMNLKYIDPTYMIRAVPSNASDNVYCTLLAQSAVHGAMAGYTGYTSGLVNGRQTYIPFYRITETQNNVVITDRMWARLLSSTNQPSFLGPKDTSEEKKELPETPLLDDGAVDIPPVTKEVTK	soluble
HHHHHHTNEAYLAHERRELEAKRNQLRDEVDRTKTHMQDEAANDPNWFDITAQLWEFSQELRNRDREEKLIKKIEQTLKKVENED	soluble
MGSDKIHHHHHHFEERSGVVPCGTPWGQWYQTLEEVFIEVQVPPGTRAQDIQCGLQSRHVALAVGGREILKGKLFDSTIADEGTWTLEDRKMVRIVLTKTKRDAANCWTSLLESEYAADPWVQDQMQRKLTLERFQKENPGFDFSGAEISGNYTKGGPDFSNLEKDGT	not soluble
MMNEKNPPLVSILIPTYNRPHYFKIALESALAQTYSNIEIIIGDDSTNDETATLIREQYLPNYKNITYIRNTPTLGQFHNDLMLIEKSNGEYINFLMDDDVFYKHKIQKMMTYFEQDPNKNLALVTSYRVRIDDHGNLIGDSHPTQRLYSEDTPLNGIFLGNWMLKGGHNIIGEPTTTLFRKELLTEPFGTLKERQYSCSVDMASWISLLSKGNAIYISEPLSQFRYHAGQQIHNKLLQGCEDFTHLVITAKEYGFLQNTTDYRAALLSAYQWCKSSLKYYLHQLDIFPDAHVRLSHCLDIIIKELNNLEHHHHHH	soluble
MVAVIIKGNEVAEKKRAQLKEEVVKLKEQGIVPGLAVILVGEDPASRSYVKGKEKGCEQVGIYSELIEFPETITEERLLAEIDRLNGDDRINGILVQLPLPKHIEEKAIIERISPEKDVDGFHPISVGRMMTGQDTFLPCTPHGIVELVKETNLDISGKHVVVIGRSNIVGKPVGQLFLNENATVTYCHSKTQNMKELTKLADILIVAVGRPKMVTADYIKEGAVVIDVGVNRLETGKLCGDVDFDNVLDVASYITPVPKGVGPMTITMLLHNTVESAKRAGVVCK	not soluble
MKILFVAAEGAPFSKTGGLGDVIGALPKSLVKAGHEVAVILPYYDMVEAKFGNQIEDVLHFEVSVGWRRQYCGIKKTVLNGVTFYFIDNQYYFFRGHVYGDFDDGERFAFFQLAAIEAMERIDFIPDLLHVHDYHTAMIPFLLKEKYRWIQAYEDIETVLTIHNLEFQGQFSEGMLGDLFGVGFERYADGTLRWNNCLNWMKAGILYANRVSTVSPSYAHEIMTSQFGCNLDQILKMESGKVSGIVNGIDADLYNPQTDALLDYHFNQEDLSGKAKNKAKLQERVGLPVRADVPLVGIVSRLTRQKGFDVVVESLHHILQEDVQIVLLGTGDPAFEGAFSWFAQIYPDKLSTNITFDVKLAQEIYAACDLFLMPSRFEPCGLSQMMAMRYGTLPLVHEVGGLRDTVRAFNPIEGSGTGFSFDNLSPYWLNWTFQTALDLYRNHPDIWRNLQKQAMESDFSWDTACKSYLDLYHSLVN	not soluble
MSLQGRRRKSLVFFPFFKINDKGASAMEEMVVVTPEKLEKLMKQKLEAAGLHSEHAEEVARHLTFADASGIHSHGAVRMDYYAERIAKGGITIDPELSFEKTGPSTAIFHGDNGVGQFVCNEALAAAVDLAKESGVAYVGVSQTSHSGTLSYYVKKAAEQGMVALSMCQSDPMVVPFGGTSNYFGTNPIAFAAPRAGHEPVVFDMATTVQAWGKILDARSRDVEIPDTWAVDEKGQPTTDPYEVRGLLPISGPKGYGLMMMVDVLAGSLLGLPFGKHVSSMYADLTEKRNLGQMFLVIDPSRFTDSERFKENINQMVEELHCVPTAEGFQQVYYPGEIGQLNYQKAMSEGIEIPQSIYDYLVSEIVHYDKYGGQGAFAKEGGSHHHHHH	soluble
MTASSQAPLKYLQAYPQALQDQVHQLIAQDRLADYLQQRYPAGHQIQSDKALYAYALALKQDHLRNAPAIKKVLFDNRLDLTHRALGLHTKISRVQGGKLKASNEIRVAALFKEAPAEFLKMIVVHELAHFRESDHNKAFYQLCEHMLPGYHQLEFDLRVYLTYNELRASSGKFLEHHHHHH	soluble
MGSDKIHHHHHHMPFLLSGHLSDQSCKAGTLPYKIRIVLILFLCPHMCLTNDEGSAVPATDLAAHQIHILYTDHHGWLYNWLRHKLGNACDAADIAQDTFMRILTRQQPVHLNEPRAYLSTIAHGLVIDHWRRRELERAWLETLASLPEPEAPAPETRLIFLEALIEIDRLLDSLKPRVRTTFLLAQLDGLTCPQIAERLGVSLSTVERYITKALRSCYMLRFEP	not soluble
